According to IntAct's records for PubMed 32296183:

Columns and labels:
cisd2_human CISD2 = molecular target: T1, cisd2_human CISD2 (UniProt Q8N5K1)
T1 sequence: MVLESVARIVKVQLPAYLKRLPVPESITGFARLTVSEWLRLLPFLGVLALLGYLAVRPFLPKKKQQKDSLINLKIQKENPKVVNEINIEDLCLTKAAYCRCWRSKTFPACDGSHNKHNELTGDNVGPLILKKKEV

cplx4_human CPLX4 = molecular target: T2, cplx4_human CPLX4 (UniProt Q7Z7G2)
T2 sequence: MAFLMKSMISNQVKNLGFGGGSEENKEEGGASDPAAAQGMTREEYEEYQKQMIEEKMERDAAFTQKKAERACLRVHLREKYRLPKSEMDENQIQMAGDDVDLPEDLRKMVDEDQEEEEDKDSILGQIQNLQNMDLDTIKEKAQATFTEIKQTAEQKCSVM

ssmm1_human SSMEM1 = molecular target: T3, ssmm1_human SSMEM1 (UniProt Q8WWF3)
T3 sequence: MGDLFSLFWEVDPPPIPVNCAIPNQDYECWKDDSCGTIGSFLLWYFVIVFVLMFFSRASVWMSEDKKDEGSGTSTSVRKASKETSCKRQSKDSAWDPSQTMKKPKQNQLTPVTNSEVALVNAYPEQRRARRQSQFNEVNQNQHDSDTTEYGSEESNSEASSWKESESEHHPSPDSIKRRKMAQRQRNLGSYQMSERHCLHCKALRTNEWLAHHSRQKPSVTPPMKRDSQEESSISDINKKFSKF

FAM209A = molecular target: T4, FAM209A (UniProt Q5JX71)
T4 sequence: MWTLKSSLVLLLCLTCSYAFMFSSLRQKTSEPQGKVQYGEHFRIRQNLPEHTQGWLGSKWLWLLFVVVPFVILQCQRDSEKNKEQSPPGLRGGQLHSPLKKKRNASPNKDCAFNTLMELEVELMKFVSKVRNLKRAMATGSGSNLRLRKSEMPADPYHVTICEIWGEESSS

kash5_human KASH5 = molecular target: T5, kash5_human KASH5 (UniProt Q8N6L0)
T5 sequence: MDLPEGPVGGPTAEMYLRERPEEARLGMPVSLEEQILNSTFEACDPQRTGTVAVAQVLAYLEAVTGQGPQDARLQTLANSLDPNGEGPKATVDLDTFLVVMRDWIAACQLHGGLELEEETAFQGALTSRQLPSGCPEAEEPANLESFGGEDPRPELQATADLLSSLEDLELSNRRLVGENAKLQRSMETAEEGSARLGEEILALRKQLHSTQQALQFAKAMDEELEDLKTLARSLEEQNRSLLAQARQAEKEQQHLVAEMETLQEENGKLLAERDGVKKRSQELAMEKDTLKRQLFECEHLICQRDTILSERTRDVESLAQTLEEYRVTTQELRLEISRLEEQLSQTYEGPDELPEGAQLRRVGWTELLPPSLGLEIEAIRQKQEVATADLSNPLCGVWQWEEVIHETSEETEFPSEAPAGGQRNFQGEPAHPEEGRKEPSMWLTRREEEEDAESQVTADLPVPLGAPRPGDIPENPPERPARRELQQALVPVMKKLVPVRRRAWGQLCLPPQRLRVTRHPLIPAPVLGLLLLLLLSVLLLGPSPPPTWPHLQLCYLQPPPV

ar13b_human ARL13B = ar13b_human ARL13B (UniProt Q3SXY8)
cxa8_human GJA8 = cxa8_human GJA8 (UniProt P48165)
tm52b_human TMEM52B = tm52b_human TMEM52B (UniProt Q4KMG9)
bik_human BIK = bik_human BIK (UniProt Q13323)
lrc4c_human LRRC4C = molecular target: T6, lrc4c_human LRRC4C (UniProt Q9HCJ2)
T6 sequence: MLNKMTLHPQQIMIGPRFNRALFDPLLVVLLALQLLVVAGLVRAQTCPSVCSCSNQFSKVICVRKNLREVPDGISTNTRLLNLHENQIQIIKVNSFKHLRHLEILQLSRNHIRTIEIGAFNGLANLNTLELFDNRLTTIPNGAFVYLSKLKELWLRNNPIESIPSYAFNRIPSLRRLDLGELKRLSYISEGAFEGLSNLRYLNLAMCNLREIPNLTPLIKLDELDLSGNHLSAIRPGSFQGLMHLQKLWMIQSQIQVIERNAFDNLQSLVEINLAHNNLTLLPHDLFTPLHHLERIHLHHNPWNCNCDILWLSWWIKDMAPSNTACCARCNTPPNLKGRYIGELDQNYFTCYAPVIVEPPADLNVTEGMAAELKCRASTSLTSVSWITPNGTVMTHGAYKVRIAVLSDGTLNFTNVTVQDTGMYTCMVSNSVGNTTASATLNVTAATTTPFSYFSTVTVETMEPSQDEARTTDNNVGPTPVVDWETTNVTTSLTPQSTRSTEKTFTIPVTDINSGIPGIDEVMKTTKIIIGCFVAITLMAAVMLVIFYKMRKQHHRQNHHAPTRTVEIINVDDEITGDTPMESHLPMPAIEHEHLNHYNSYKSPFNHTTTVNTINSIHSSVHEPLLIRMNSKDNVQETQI

pdz1i_human PDZK1IP1 = molecular target: T7, pdz1i_human PDZK1IP1 (UniProt Q13113)
T7 sequence: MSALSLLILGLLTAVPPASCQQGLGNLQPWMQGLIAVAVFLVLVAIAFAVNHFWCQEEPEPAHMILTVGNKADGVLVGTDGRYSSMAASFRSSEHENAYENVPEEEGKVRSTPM

cld7_human CLDN7 = molecular target: T8, cld7_human CLDN7 (UniProt O95471)
T8 sequence: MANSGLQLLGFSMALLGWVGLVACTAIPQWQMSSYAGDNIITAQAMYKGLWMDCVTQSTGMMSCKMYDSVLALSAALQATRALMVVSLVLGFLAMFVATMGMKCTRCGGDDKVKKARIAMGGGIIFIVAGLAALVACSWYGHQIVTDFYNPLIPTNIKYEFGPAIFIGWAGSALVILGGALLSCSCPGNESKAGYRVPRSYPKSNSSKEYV

gpx8_human GPX8 = molecular target: T9, gpx8_human GPX8 (UniProt Q8TED1)
T9 sequence: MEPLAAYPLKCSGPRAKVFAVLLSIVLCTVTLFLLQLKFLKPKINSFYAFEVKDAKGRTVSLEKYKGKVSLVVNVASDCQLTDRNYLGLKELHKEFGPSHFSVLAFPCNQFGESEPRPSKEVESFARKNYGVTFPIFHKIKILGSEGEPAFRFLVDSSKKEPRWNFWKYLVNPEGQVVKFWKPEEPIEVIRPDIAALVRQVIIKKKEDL

Sequence of ar13b_human ARL13B (Q3SXY8 whole entry): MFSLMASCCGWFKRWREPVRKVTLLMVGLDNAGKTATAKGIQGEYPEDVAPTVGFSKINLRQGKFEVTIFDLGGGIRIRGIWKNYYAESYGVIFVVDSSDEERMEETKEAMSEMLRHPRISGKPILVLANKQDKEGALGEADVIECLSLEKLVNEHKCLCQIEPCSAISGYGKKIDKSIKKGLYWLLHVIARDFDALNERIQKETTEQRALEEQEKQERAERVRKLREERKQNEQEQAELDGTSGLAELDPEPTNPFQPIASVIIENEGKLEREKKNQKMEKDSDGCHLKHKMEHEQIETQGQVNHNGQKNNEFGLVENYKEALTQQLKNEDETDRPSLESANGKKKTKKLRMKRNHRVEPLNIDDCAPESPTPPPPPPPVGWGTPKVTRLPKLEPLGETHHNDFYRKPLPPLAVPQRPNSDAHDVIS
Sequence of bik_human BIK (Q13323 whole entry): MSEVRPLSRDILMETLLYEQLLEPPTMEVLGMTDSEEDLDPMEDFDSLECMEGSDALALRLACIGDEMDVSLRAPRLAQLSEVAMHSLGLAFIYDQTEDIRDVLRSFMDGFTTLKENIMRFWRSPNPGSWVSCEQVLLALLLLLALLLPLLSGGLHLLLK
Sequence of tm52b_human TMEM52B (Q4KMG9 whole entry): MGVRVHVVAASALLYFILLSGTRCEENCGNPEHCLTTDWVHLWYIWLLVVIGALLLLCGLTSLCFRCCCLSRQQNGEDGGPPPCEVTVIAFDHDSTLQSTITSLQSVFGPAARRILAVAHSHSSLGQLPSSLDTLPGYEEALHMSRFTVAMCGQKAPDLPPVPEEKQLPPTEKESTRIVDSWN
Sequence of cxa8_human GJA8 (P48165 whole entry): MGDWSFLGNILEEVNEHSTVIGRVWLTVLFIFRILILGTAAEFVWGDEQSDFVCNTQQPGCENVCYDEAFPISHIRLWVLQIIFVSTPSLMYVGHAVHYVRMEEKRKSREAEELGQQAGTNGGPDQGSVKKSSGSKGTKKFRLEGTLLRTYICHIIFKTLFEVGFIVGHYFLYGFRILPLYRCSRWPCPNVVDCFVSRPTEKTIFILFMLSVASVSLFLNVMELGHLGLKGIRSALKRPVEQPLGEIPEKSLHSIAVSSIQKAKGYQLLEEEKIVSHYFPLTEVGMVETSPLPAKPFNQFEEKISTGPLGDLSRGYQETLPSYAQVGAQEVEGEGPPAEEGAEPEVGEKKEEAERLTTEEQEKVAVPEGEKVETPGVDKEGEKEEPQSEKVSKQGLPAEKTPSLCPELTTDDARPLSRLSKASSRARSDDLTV

Acyltransferase PGAP2 (Homo sapiens) (from UniProt Q9UHJ9-5) T160I
effect of a mutation on the interaction (cisd2_human CISD2): with no effect | effect of a mutation on the interaction (cplx4_human CPLX4): with no effect | effect of a mutation on the interaction (ssmm1_human SSMEM1): with no effect | effect of a mutation on the interaction (FAM209A): with no effect | effect of a mutation on the interaction (kash5_human KASH5): disrupting interaction strength | effect of a mutation on the interaction (ar13b_human ARL13B): with no effect | effect of a mutation on the interaction (cxa8_human GJA8): with no effect | effect of a mutation on the interaction (tm52b_human TMEM52B): disrupting interaction strength | effect of a mutation on the interaction (bik_human BIK): with no effect | effect of a mutation on the interaction (lrc4c_human LRRC4C): with no effect | effect of a mutation on the interaction (pdz1i_human PDZK1IP1): with no effect | effect of a mutation on the interaction (cld7_human CLDN7): disrupting interaction strength | effect of a mutation on the interaction (gpx8_human GPX8): with no effect
